Reference: article PMC8531357, “Regulation of plant phototropic growth by NPH3/RPT2-like substrate phosphorylation and 14-3-3 binding” (Nature Communications, 2021)
Changes are numbered by the printed parent chain. Each block holds one molecule with its values, some of them ahead of it.

Experiments:
[1] = biological target: 14-3-3 Epsilon (UniProt P48347); experiment: far-western of anti-GFP IP, GST-14-3-3 probe; conditions: reference: wild-type GFP-NPH3; sites S744
[2] = biological target: T1, GFP-NPH3 (NON-PHOTOTROPIC HYPOCOTYL 3) (Arabidopsis, UniProt Q9FMF5 1-746, phosphoserine at 744 after blue light irradiation (pS744 antibody), not in darkness; phosphorylated on multiple other sites in darkness (including S213, S223, S233, S237), dephosphorylated after blue …); experiment: far-Western, overlay or dot blot; GFP-Trap immunoprecipitates from etiolated seedlings irradiated with 20 µmol m^-2 s^-1 blue light for 15 min (L), separated by SDS-PAGE, on PVDF; probed with purified GST-14-3-3 or GST alone at 1 µM in 20 mM HEPES-KOH pH 7.7, 75 mM KCl, 0.1 mM EDTA, 1 mM DTT, 2% milk, 0.04% Tween-20; detected with anti-GST; conditions: both partners purified
T1 construct: NPH3 (NON-PHOTOTROPIC HYPOCOTYL 3), Arabidopsis; S746 is the last residue; The state of the protein differs between dark and blue-light-treated seedlings; the two are kept apart by the assay; also called NPH3::GFP-NPH3; source: etiolated Arabidopsis nph3 seedlings expressing NPH3::GFP-NPH3; total protein extract, anti-GFP immunoprecipitated
T1 sequence (looked up): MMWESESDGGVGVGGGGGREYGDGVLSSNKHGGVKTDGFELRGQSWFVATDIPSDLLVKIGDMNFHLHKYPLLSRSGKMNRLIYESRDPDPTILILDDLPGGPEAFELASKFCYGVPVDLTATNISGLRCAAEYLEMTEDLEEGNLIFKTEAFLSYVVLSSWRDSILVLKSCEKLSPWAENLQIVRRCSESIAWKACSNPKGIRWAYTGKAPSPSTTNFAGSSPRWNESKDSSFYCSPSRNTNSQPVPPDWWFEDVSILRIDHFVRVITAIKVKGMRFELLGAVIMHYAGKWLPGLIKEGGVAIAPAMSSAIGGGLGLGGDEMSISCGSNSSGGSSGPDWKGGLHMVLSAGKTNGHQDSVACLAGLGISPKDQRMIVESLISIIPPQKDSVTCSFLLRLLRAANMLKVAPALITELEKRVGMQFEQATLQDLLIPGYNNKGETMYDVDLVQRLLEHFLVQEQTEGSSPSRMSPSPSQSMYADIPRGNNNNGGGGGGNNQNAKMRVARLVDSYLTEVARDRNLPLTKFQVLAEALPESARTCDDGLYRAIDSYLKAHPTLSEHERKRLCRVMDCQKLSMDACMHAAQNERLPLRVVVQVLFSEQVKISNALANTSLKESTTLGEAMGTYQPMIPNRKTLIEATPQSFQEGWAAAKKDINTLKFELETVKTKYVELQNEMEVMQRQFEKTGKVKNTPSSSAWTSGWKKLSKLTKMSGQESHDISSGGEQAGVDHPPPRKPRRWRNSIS

[3] = biological target: T2, GFP-NPH3 S746A (Arabidopsis, UniProt Q9FMF5 1-746, S746A, phosphoserine at 744 after blue light irradiation, at a reduced level (pS744 antibody)); experiment: as above; conditions: both partners purified
T2 construct: NPH3, Arabidopsis; source: etiolated Arabidopsis nph3 seedlings expressing NPH3::GFP-NPH3 S746A; total protein extract, anti-GFP immunoprecipitated
T2 sequence (looked up): T1 sequence (looked up) with S746A

binding against the reference [1]: lost
Molecule: NPH3 (NON-PHOTOTROPIC HYPOCOTYL 3) (from UniProt Q9FMF5) S744A

binding result [2]: binds | binding result [3]: binds
B1: GST-14-3-3 Epsilon (natural protein, Arabidopsis, UniProt P48347 1-254, looked up)
chain: MENEREKQVYLAKLSEQTERYDEMVEAMKKVAQLDVELTVEERNLVSVGYKNVIGARRASWRILSSIEQKEESKGNDENVKRLKNYRKRVEDELAKVCNDILSVIDKHLIPSSNAVESTVFFYKMKGDYYRYLAEFSSGAERKEAADQSLEAYKAAVAAAENGLAPTHPVRLGLALNFSVFYYEILNSPESACQLAKQAFDDAIAELDSLNEESYKDSTLIMQLLRDNLTLWTSDLNEEGDERTKGADEPQDEN
notes: Arabidopsis 14-3-3 isoform Epsilon (epsilon group member), expressed from pGEX-4T1 as a translational fusion with GST; source: E. coli BL21(DE3), purified (glutathione agarose)

binding result [2]: binds
B2: GST-14-3-3 Lambda (natural protein, Arabidopsis, UniProt P48349 1-248, looked up)
chain: MAATLGRDQYVYMAKLAEQAERYEEMVQFMEQLVTGATPAEELTVEERNLLSVAYKNVIGSLRAAWRIVSSIEQKEESRKNDEHVSLVKDYRSKVESELSSVCSGILKLLDSHLIPSAGASESKVFYLKMKGDYHRYMAEFKSGDERKTAAEDTMLAYKAAQDIAAADMAPTHPIRLGLALNFSVFYYEILNSSDKACNMAKQAFEEAIAELDTLGEESYKDSTLIMQLLRDNLTLWTSDMQEQMDEA
notes: Arabidopsis 14-3-3 isoform Lambda (non-epsilon group member), expressed from pGEX-4T1 as a translational fusion with GST; source: E. coli BL21(DE3), purified (glutathione agarose)
